The values below come from patent US20090202980A1 (CROSSBETA BIOSCIENCES B V, published 2009).

The labels stand for the following.
B4: human islet amyloid polypeptide, full length (fl-hIAPP) (peptide)
peptide: KCNTATCATQRLANFLVHSSNNFGAILSSTNVGSNTY

The target in test [1] is T1, recombinant tissue-type plasminogen activator (tPA) (human, UniProt P00750 36-562).
T1 construct: Commercial full-length recombinant tPA; also called Alteplase; Actilyse
The test is described as follows: ELISA, 25 µg/ml peptide immobilized.

The target of test [2] is T2, human factor XII (Hageman factor) (human, UniProt P00748 20-615).
T2 construct: also called FXII; fXII
T2 sequence (looked up): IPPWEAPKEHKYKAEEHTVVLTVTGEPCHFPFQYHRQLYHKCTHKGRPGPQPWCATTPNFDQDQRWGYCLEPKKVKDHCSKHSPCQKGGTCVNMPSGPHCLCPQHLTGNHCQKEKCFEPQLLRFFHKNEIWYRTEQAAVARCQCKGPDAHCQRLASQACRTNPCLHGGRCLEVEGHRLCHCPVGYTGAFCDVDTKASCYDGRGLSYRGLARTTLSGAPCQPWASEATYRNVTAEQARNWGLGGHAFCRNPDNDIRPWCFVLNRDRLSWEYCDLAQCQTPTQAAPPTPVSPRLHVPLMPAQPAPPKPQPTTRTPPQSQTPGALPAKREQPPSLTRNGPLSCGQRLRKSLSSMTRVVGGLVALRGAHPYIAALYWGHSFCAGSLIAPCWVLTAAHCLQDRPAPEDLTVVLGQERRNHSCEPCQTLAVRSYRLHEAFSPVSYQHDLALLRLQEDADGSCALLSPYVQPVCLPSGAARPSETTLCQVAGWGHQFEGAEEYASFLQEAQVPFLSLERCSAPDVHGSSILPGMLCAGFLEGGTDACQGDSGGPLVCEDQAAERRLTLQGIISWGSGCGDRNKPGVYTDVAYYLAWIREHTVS
The test is described as follows: ELISA, coated peptide, FXII overlaid. An excerpt:
Ten μg of the peptides that contain cross-β structure, as well as the negative control peptide mΔIAPP and phosphate-buffered saline (PBS), were spotted in duplicate.
Wells were coated in triplicate. […] Ten μg of the peptides that contain cross-β structure, as well as the negative control peptide MΔIAPP and phosphate-buffered saline (PBS), were spotted in duplicate onto methanol-activated nitrocellulose.

In test [3] the target is T3, tPA-F-EGF-GST (finger and EGF domains of human tPA with C-terminal GST tag) (human; Schistosoma japonicum, UniProt P00750 36-122).
T3 construct: domain: F-EGF; also called F-EGF-tPA; not shown: vector residues and thrombin cleavage site; Schistosoma japonicum glutathion-S-transferase (GST) tag
T3 sequence (looked up): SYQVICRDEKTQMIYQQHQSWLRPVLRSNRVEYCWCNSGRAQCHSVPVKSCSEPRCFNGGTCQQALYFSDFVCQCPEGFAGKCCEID
Nature of the test: ELISA, 25 µg/ml peptide immobilized, excess εACA. On the technique in general: An ELISA detects its analyte on a solid surface through an enzyme-linked reagent.

For test [4], the target named is T4, human amyloid-β peptide Aβ(1-40) (human).
T4 construct: also called hAβ(1-40); amyloid-β(1-40)
The test is described as follows: ELISA, Aβ coated, plasminogen overlaid.

Test [5] deals with T4, human amyloid-β peptide Aβ(1-40). Nature of the test: pull-down with Aβ fibrils, Western blot. On the procedure: “Control,” medium before the pull-down, “Aβ,” washed amyloid Aβ pellet, after the pull-down, “Sup,” medium after extraction with Aβ. […] MΔIAPP was coated as non-amyloid negative control (Panel E). […] The same sections were incubated with Congo red (Panels I, K, and M) to locate amyloid deposits. Panels N and O: Pull-down assay with insoluble Aβ fibrils and finger domains. […] “Control,” medium before the pull-down, “Aβ,” washed amyloid Aβ pellet, after the pull-down, “Sup,” medium after extraction with Aβ.
(§1) Conditioned medium was used for pull-down assays using Aβ and IAPP fibrils, followed by Western blot analyses.
(In western blotting, separated proteins are transferred to a membrane and probed.)

The target in test [6] is B4. The test is described as follows: pull-down with IAPP fibrils, Western blot.
From the text: as §1

Test [7] addresses T1, recombinant tissue-type plasminogen …. The test is described as follows: ELISA on Exiqon plates.
Test [8] has as its target T5, Fn F4-5-GST (finger domains 4-5 of human fibronectin with C-terminal GST tag) (human; Schistosoma japonicum, UniProt P02751 182-276).
T5 construct: domain: fibronectin type I domains 4-5; Printed in places as Fn F4-S-GST (a misprint of F4-5); also called Fn F4-S-GST; fibronectin F4-5; not shown: (G)RP vector residues and thrombin cleavage site; Schistosoma japonicum glutathion-S-transferase (GST) tag
The test is described as follows: ELISA, immobilized peptide.

In test [9] the target is T6, tPA K1-GST (kringle 1 domain of human tPA with C-terminal GST tag) (human; Schistosoma japonicum, UniProt P00750 123-210).
T6 construct: domain: K1; not shown: vector residues and thrombin cleavage site; Schistosoma japonicum glutathion-S-transferase (GST) tag
T6 sequence (looked up): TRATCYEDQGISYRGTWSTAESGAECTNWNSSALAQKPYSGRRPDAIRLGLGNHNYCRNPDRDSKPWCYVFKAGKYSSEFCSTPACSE
Nature of the test: pull-down with IAPP fibrils, Western blot.
From the text: as §1

For test [10], the target named is T1, recombinant tissue-type plasminogen …. Nature of the test: ELISA, 25 µg/ml peptide immobilized on Exiqon plates.
The target in test [11] is T3, tPA-F-EGF-GST (finger and EGF domains …). Nature of the test: ELISA, 25 µg/ml peptide immobilized, excess εACA, anti-GST detection.

T4 sequence (peptide, as listed by the source): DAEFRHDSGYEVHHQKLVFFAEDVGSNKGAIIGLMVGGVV
T5 sequence (P02751 182-276, tags left off): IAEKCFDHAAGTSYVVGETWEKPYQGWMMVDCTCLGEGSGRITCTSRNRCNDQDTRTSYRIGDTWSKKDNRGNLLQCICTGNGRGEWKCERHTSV

B1: mouse non-amyloidogenic IAPP(20-29) core (ΔmIAPP) (peptide)
peptide: SNNLGPVLPP
notes: Non-amyloid negative control peptide; also called mΔIAPP; MΔIAPP
For the molecule B1, the binding result in [1], in test [2] and in [3] was “no binding” in each case.

B2: plasminogen (enzyme, UniProt P00747 20-810, looked up)
chain: EPLDDYVNTQGASLFSVTKKQLGAGSIEECAAKCEEDEEFTCRAFQYHSKEQQCVIMAENRKSSIIIRMRDVVLFEKKVYLSECKTGNGKNYRGTMSKTKNGITCQKWSSTSPHRPRFSPATHPSEGLEENYCRNPDNDPQGPWCYTTDPEKRYDYCDILECEEECMHCSGENYDGKISKTMSGLECQAWDSQSPHAHGYIPSKFPNKNLKKNYCRNPDRELRPWCFTTDPNKRWELCDIPRCTTPPPSSGPTYQCLKGTGENYRGNVAVTVSGHTCQHWSAQTPHTHNRTPENFPCKNLDENYCRNPDGKRAPWCHTTNSQVRWEYCKIPSCDSSPVSTEQLAPTAPPELTPVVQDCYHGDGQSYRGTSSTTTTGKKCQSWSSMTPHRHQKTPENYPNAGLTMNYCRNPDADKGPWCFTTDPSVRWEYCNLKKCSGTEASVVAPPPVVLLPDVETPSEEDCMFGNGKGYRGKRATTVTGTPCQDWAAQEPHRHSIFTPETNPRAGLEKNYCRNPDGDVGGPWCYTTNPRKLYDYCDVPQCAAPSFDCGKPQVEPKKCPGRVVGGCVAHPHSWPWQVSLRTRFGMHFCGGTLISPEWVLTAAHCLEKSPRPSSYKVILGAHQEVNLEPHVQEIEVSRLFLEPTRKDIALLKLSSPAVITDKVIPACLPSPNYVVADRTECFITGWGETQGTFGAGLLKEAQLPVIENKVCNRYEFLNGRVQSTELCAGHLAGGTDSCQGDSGGPLVCFEKDKYILQGVTSWGLGCARPNKPGVYVRVSRFVTWIEGVMRNN
notes: also called Plg
Turning to B2, the binding result in [4] is given as “no binding”.

B3: tPA EGF-GST (EGF domain of human tPA with C-terminal GST tag) (other, UniProt P00750 86-122, looked up)
chain: CSEPRCFNGGTCQQALYFSDFVCQCPEGFAGKCCEID
notes: domain: EGF; not shown: vector residues and thrombin cleavage site; Schistosoma japonicum glutathion-S-transferase (GST) tag
As to B3, the binding result in test [5] and in test [6] was “no binding” in each case.

On to B4, for which the Kd – broadly, a measure of binding affinity in units of concentration – was 6 nM in [7], 2 nM in test [10] and 13 nM in [11]. Further, the binding result is reported as “binds” in test [8] and “no binding” in test [9].
